Reference: patent EP0571387B1

Molecular target: c-met protooncogene product (HGF receptor) on B5/589 human mammary epithelial cells (human) (UniProt P08581)
Assay: cell-based or functional assay

Sequence of UniProt P08581 (P08581 25-1390): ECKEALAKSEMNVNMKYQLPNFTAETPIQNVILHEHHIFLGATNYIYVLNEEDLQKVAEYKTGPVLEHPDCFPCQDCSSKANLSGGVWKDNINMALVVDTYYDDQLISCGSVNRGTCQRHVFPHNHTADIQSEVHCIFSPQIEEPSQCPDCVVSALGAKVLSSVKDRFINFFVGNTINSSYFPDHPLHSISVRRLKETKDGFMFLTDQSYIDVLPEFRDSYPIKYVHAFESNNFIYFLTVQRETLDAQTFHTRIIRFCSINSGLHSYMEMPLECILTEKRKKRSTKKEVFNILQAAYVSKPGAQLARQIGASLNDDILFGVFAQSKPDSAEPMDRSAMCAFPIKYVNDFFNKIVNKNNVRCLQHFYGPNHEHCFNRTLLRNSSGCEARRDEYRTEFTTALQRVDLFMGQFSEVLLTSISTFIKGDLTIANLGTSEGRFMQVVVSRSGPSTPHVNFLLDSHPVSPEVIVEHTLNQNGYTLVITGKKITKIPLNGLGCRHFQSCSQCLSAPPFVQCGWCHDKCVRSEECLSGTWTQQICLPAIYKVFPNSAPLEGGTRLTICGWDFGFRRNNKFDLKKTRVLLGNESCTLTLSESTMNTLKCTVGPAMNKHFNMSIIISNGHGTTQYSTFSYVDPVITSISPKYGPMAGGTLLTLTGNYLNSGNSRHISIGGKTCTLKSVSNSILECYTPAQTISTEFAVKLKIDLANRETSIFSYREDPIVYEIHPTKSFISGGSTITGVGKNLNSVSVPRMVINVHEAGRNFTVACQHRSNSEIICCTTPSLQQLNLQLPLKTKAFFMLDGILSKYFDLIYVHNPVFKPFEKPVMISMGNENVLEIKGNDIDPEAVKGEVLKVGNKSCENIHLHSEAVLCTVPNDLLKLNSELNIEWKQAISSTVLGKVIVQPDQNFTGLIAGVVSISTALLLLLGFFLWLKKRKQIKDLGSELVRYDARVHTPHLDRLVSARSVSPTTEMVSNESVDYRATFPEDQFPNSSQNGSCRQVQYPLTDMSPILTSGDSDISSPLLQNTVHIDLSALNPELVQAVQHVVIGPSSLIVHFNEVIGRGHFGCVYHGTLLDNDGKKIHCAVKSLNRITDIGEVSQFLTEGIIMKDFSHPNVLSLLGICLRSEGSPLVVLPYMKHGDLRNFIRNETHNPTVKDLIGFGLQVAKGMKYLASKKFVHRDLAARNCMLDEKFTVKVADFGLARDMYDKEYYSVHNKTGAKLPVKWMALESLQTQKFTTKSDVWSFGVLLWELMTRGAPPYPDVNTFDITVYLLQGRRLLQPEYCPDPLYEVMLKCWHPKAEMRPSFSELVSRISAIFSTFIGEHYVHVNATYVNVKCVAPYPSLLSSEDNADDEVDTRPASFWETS

With “HGF/NK2 (34 kd truncated HGF variant, naturally occurring, purified from conditioned medium of SK-LMS-1 cells) (ligand)” the inhibition of HGF-induced [3H]-thymidine incorporation in B5/589 cells (fold molar excess over HGF) was 10 to 20.
